{
  "source": "patent US20210403601A1",
  "about": "(FAPON BIOTECH, published 2021)",
  "binders": {"B1": {"name": "Mutation 1-1 (antibody, V domains shown)", "VH": "QVQLQQPGAELVKPGASVRLSCQTSVDTFTTYYIYWVKQRPGEGLEWIGGINPTSNPVFNEKFKSKATLTVDTSSSTAYMQLSSLTSVDSAVYYCTRSIVRRGYYFDYWGQGTALTVSS", "VL": "DIQMTQTTSSLSASLGDRVTISCRASQDINNYVNWYQQKPDGTIKLLIYYTSRLQSGVPSRFSGSGSGTDYSLTIANLEQEDIATYFCQQDDTIPITFGAGTKVELKR", "notes": "Mutation 1 background; CDRs built"}, "B2": {"name": "Mutation 1-24 (antibody, V domains shown)", "VH": "QVQLQQPGAELVKPGASVRLSCQTSVETFSTYYIYWVKQRPGEGLEWIGGVNPTSGGPVFNEKFKSKATLTVDTSSSTAYMQLSSLTSVDSAVYYCTRSLLRRGYYFDYWGQGTALTVSS", "VL": "B1 VL with N30Q, V58L, I94L, I96V", "notes": "as for B1"}, "B3": {"name": "Mutation 1-26 (antibody, V domains shown)", "VH": "B2 VH with E27N, V51L, L101I", "VL": "B1 VL with N30Q, V33L, Q55N, V58L, I94L, I96L", "notes": "as for B1"}, "B4": {"name": "Mutation 1-25 (antibody, V domains shown)", "VH": "B2 VH with S30T, V51I, L101V", "VL": "B1 VL with Q55H, V58L, I94L", "notes": "as for B1"}, "B5": {"name": "Mutation 1-17 (antibody, V domains shown)", "VH": "B2 VH with E27N, S30T, V51L, L101I", "VL": "B1 VL with V33I, Q55N, V58L, I94L, I96L", "notes": "as for B1"}, "B6": {"name": "Mutation 1-20 (antibody, V domains shown)", "VH": "B1 VH with D27E, I51L, V100I", "VL": "B1 VL with N30Q, V33L, Q55N, V58I, I96L", "notes": "as for B1"}, "B7": {"name": "Mutation 1-29 (antibody, V domains shown)", "VH": "B1 VH with D27E, I51L, V100I", "VL": "B1 VL with V33I, Q55N, V58I, I96V", "notes": "as for B1"}, "B8": {"name": "Mutation 1-36 (antibody, V domains shown)", "VH": "B1 VH with D27E, T30S, V100L", "VL": "B1 VL with N30Q, V58I, I96L", "notes": "as for B1"}, "B9": {"name": "Mutation 1-39 (antibody, V domains shown)", "VH": "B2 VH with E27N, S30T, V51I, L100V", "VL": "B1 VL with V33L, I94V, I96L", "notes": "as for B1"}, "B10": {"name": "Mutation 1-32 (antibody, V domains shown)", "VH": "B2 VH with E27D, L100V, L101I", "VL": "B1 VL with N30Q, V33L, Q55N, I94V, I96V", "notes": "as for B1"}, "B11": {"name": "Mutation 1-4 (antibody, V domains shown)", "VH": "B2 VH with E27N, V51I, L100V, L101V", "VL": "B1 VL with N30Q, V33I, Q55H, I94V", "notes": "as for B1"}, "B12": {"name": "Mutation 1-27 (antibody, V domains shown)", "VH": "B1 VH with D27N, I51V, V100L", "VL": "B1 VL with V33L, V58I, I96V", "notes": "as for B1"}, "B13": {"name": "Mutation 1-47 (antibody, V domains shown)", "VH": "B1 VH with I51V, V100I", "VL": "B1 VL with V33I, Q55N, V58L, I96V", "notes": "as for B1"}, "B14": {"name": "Mutation 1-54 (antibody, V domains shown)", "VH": "B1 VH with D27N, I51L, V100L", "VL": "B1 VL with N30Q, Q55N, I96V", "notes": "as for B1"}, "B15": {"name": "Mutation 1-28 (antibody, V domains shown)", "VH": "B1 VH with T30S", "VL": "B1 VL with N30Q, V33I, Q55H, V58I", "notes": "Mutation 1 background; CDRs built; also called Mutation 148"}, "B16": {"name": "Mutation 1-48 (antibody, V domains shown)", "VH": "B1 VH with D27E, T30S, I99V, V100L", "VL": "B1 VL with N30Q, I94V, I96L", "notes": "as for B1"}, "B17": {"name": "Mutation 1-22 (antibody, V domains shown)", "VH": "B2 VH with E27N, S30T, V51I, L100V, L101V", "VL": "B1 VL with N30Q, V33I, Q55H, I94V", "notes": "as for B1"}, "B18": {"name": "Mutation 1-57 (antibody, V domains shown)", "VH": "B1 VH with D27E, T30S, I51V, I99V, V100L", "VL": "B1 VL with V33L, I94V, I96V", "notes": "as for B1"}, "B19": {"name": "Mutation 1-18 (antibody, V domains shown)", "VH": "B1 VH with I51V, V100L", "VL": "B1 VL with N30Q, V58I, I96V", "notes": "as for B1"}, "B20": {"name": "Mutation 1-23 (antibody, V domains shown)", "VH": "B2 VH with E27D, V51L, L100V, L101I", "VL": "B1 VL with V33I, Q55N, I94V, I96L", "notes": "as for B1"}, "B21": {"name": "Mutation 1-31 (antibody, V domains shown)", "VH": "B2 VH with E27N, S30T, V51L, L100V, L101V", "VL": "B1 VL with Q55H, I94V", "notes": "as for B1"}, "B22": {"name": "Mutation 1-60 (antibody, V domains shown)", "VH": "B2 VH with E27N, S30T", "VL": "B1 VL with N30Q, V33I, Q55H, I94L, I96V", "notes": "as for B1"}, "B23": {"name": "Mutation 1-10 (antibody, V domains shown)", "VH": "B2 VH with E27N, V51I, L100I, L101V", "VL": "B1 VL with N30Q, V33I", "notes": "as for B1"}, "B24": {"name": "Mutation 1-46 (antibody, V domains shown)", "VH": "B2 VH with E27D, V51L, L100I, L101V", "VL": "B1 VL with N30Q, V33I, Q55N, V58I", "notes": "as for B1"}, "B25": {"name": "Mutation 1-30 (antibody, V domains shown)", "VH": "B2 VH with E27N, V51I, L100V", "VL": "B1 VL with N30Q, I94V, I96L", "notes": "Mutation 1 background; CDRs built; CDR-VL3 cell printed VL, read as V/L"}, "B26": {"name": "Mutation 1-40 (antibody, V domains shown)", "VH": "B2 VH with E27D, V51L, L100V, L101V", "VL": "B1 VL with N30Q, V33I, Q55H, I94V", "notes": "as for B1"}, "B27": {"name": "Mutation 1-5 (antibody, V domains shown)", "VH": "B2 VH with E27N, S30T, V51L, L100V, L101I", "VL": "B1 VL with V33I, Q55H, V58L, I94V, I96L", "notes": "as for B1"}, "B28": {"name": "Mutation 1-50 (antibody, V domains shown)", "VH": "B2 VH with E27N, L100V, L101I", "VL": "B1 VL with N30Q, V33L, V58L, I94V, I96V", "notes": "as for B1"}, "B29": {"name": "Mutation 1-12 (antibody, V domains shown)", "VH": "B1 VH with T30S, I51V, I99V, V100L", "VL": "B1 VL with N30Q, Q55H, V58I, I94V, I96V", "notes": "as for B1"}, "B30": {"name": "Mutation 1-21 (antibody, V domains shown)", "VH": "B2 VH with E27N, L100V", "VL": "B1 VL with V33L, I94V, I96V", "notes": "as for B1"}, "B31": {"name": "Mutation 1-6 (antibody, V domains shown)", "VH": "B1 VH with T30S, I51V, I99L, V100L", "VL": "B1 VL with N30Q, Q55N, V58I, I94L, I96V", "notes": "as for B1"}, "B32": {"name": "Mutation 1-52 (antibody, V domains shown)", "VH": "B2 VH with S30T, V51L, L101V", "VL": "B1 VL with N30Q, V33I, Q55H, V58I, I94L", "notes": "as for B1"}, "B33": {"name": "Mutation 1-2 (antibody, V domains shown)", "VH": "B1 VH with D27E, T30S, I51L, V100I", "VL": "B1 VL with N30Q, V33L, V58L, I96L", "notes": "as for B1"}, "B34": {"name": "Mutation 1-16 (antibody, V domains shown)", "VH": "B2 VH with E27N, V51I, L101V", "VL": "B1 VL with N30Q, V33I, Q55N, I94L", "notes": "as for B1"}, "B35": {"name": "Mutation 1-42 (antibody, V domains shown)", "VH": "B1 VH with D27E, T30S, I99L, V100L", "VL": "B1 VL with N30Q, V58L, I94L, I96L", "notes": "as for B1"}, "B36": {"name": "Mutation 1-34 (antibody, V domains shown)", "VH": "B2 VH with E27D, V51L, L101V", "VL": "B1 VL with N30Q, V33I, Q55H, V58L, I94L", "notes": "as for B1"}},
  "note": "Positions count from the first letter of the chain named.",
  "data": [
    {"molecular_target": "T1, Taq DNA polymerase (Thermus aquaticus, UniProt P19821 1-832)", "T1 construct": "also called Taq enzyme; Taq DNA enzyme", "T1 sequence (P19821 whole entry)": "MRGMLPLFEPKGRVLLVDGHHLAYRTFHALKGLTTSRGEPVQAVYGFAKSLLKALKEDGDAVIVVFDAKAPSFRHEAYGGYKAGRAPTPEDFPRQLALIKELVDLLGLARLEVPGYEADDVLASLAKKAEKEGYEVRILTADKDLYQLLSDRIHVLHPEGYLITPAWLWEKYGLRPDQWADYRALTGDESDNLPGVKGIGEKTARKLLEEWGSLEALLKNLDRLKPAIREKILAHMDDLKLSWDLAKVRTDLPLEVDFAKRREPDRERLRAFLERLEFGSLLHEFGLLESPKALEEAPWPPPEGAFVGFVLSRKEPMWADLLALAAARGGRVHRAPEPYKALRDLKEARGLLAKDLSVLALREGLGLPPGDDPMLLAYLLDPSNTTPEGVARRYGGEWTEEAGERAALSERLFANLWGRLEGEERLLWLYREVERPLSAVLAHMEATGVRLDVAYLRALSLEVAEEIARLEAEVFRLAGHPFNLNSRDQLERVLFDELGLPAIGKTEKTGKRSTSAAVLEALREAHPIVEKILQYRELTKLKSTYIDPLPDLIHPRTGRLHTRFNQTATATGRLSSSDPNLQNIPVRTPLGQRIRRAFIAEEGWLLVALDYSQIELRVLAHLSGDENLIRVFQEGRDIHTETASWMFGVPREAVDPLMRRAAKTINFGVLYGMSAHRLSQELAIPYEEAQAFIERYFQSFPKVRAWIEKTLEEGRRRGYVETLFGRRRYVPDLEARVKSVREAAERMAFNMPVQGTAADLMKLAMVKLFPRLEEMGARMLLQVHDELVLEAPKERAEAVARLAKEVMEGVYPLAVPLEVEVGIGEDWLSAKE", "assay": "AMC sensor, antibody immobilised", "units": {"Kd": "pM", "koff": "s⁻¹", "kon": "M⁻¹ s⁻¹"}, "values": [
      {"binder": "B1", "Kd": 491, "koff": "1.58e-05", "kon": 32200},
      {"binder": "B2", "Kd": 199, "koff": "1.12e-05", "kon": 56400},
      {"binder": "B3", "Kd": 852, "koff": "2.89e-05", "kon": 34000},
      {"binder": "B4", "Kd": 678, "koff": "4.57e-05", "kon": 67300},
      {"binder": "B5", "Kd": 398, "koff": "1.36e-05", "kon": 34000},
      {"binder": "B6", "Kd": 728, "koff": "6.43e-05", "kon": 88300},
      {"binder": "B7", "Kd": 31.4, "koff": "1.13e-06", "kon": 36100},
      {"binder": "B8", "Kd": 768, "koff": "3.85e-05", "kon": 50200},
      {"binder": "B9", "Kd": 457, "koff": "2.2e-05", "kon": 48100},
      {"binder": "B10", "Kd": 281, "koff": "8.8e-06", "kon": 31300},
      {"binder": "B11", "Kd": 719, "koff": "2.75e-05", "kon": 38200},
      {"binder": "B12", "Kd": 28, "koff": "2.03e-06", "kon": 72400},
      {"binder": "B13", "Kd": 739, "koff": "4.67e-05", "kon": 63200},
      {"binder": "B14", "Kd": 273, "koff": "1.01e-05", "kon": 37200},
      {"binder": "B15", "Kd": 402, "koff": "2.61e-05", "kon": 65000},
      {"binder": "B16", "Kd": 384, "koff": "3.72e-05", "kon": 97900},
      {"binder": "B17", "Kd": 384, "koff": "3.7e-05", "kon": 97200},
      {"binder": "B18", "Kd": 362, "koff": "2.49e-05", "kon": 69000},
      {"binder": "B19", "Kd": 677, "koff": "4.5e-05", "kon": 66400},
      {"binder": "B20", "Kd": 913, "koff": "6.41e-05", "kon": 70200},
      {"binder": "B21", "Kd": 850, "koff": "5.38e-05", "kon": 63300},
      {"binder": "B22", "Kd": 31.4, "koff": "2.66e-06", "kon": 84600},
      {"binder": "B23", "Kd": 384, "koff": "3.76e-05", "kon": 98000},
      {"binder": "B24", "Kd": 655, "koff": "2.87e-05", "kon": 43800},
      {"binder": "B25", "Kd": 911, "koff": "4.49e-05", "kon": 49300},
      {"binder": "B26", "Kd": 615, "koff": "4.7e-05", "kon": 76400},
      {"binder": "B27", "Kd": 873, "koff": "7.78e-05", "kon": 89100},
      {"binder": "B28", "Kd": 593, "koff": "3.02e-05", "kon": 50800},
      {"binder": "B29", "Kd": 22, "koff": "2.05e-06", "kon": 93400},
      {"binder": "B30", "Kd": 66.4, "koff": "5.96e-06", "kon": 89800},
      {"binder": "B31", "Kd": 808, "koff": "3.41e-05", "kon": 42100},
      {"binder": "B32", "Kd": 698, "koff": "2.37e-05", "kon": 34000},
      {"binder": "B33", "Kd": 285, "koff": "1.42e-05", "kon": 49700},
      {"binder": "B34", "Kd": 223, "koff": "1.45e-05", "kon": 65100},
      {"binder": "B35", "Kd": 803, "koff": "3.75e-05", "kon": 46700},
      {"binder": "B36", "Kd": 987, "koff": "6.17e-05", "kon": 62600}
    ]}
  ]
}
